Laboratory results: the RNAGym collection of RNA variant scans (doi:10.1073/pnas.2313332121)

B1: TPR t1 (parent)
chain: GACCAAUCUGCCCUCAGAGCUCGAGAACAUCUUCGGAUGCAGAGGAGGCAGGCUUCGGUGGCGCGAUAGCGCCAACGUCCUCAACCUCCAAUGCAUCCCACCACAUGAUGAUGCCUGAAGAGCCUUGGUUUUUUG

Variants of: B1
Assay: polymerase ribozyme fitness, log enrichment relative to wild type (log ratio); higher = more active; in vitro selection for triplet polymerase activity
How it was run: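 PCR was used to build mutant libraries for each subunit of a heterodimeric triplet polymerase ribozyme, which were then transcribed. A single in vitro selection round, in triplicate, used a frozen incubation at −7 °C and recovered extended constructs by gel excision, streptavidin beads and RT-PCR. Fitness is the logarithm of genotype enrichment relative to wild-type enrichment, averaged over replicates with inverse-variance weights. The logarithm is base 2, and after Illumina sequencing only genotypes with ≥10 input reads and ≥1 read per output were kept.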

Variant | polymerase ribozyme fitness (log ratio)
G47U G60A C86A C89U | -0.955
A75G A121G | 1.42
U7G U38C G45U C97U U133G | -2.84
C13U G69A C82U | -2.59
U38C A46C C53A C76G C80U C94U | -2.96
G48A C79U U92G U116C G120C | -5.27
A26G A37U G42U C72A G120C | -2.36
U9G C86G A119U | 0.167
G60A U87A A119G U125C | -0.987
G10C G52U G58C A84U | -2.42
C40A G69U | -0.43
G63U C101U C115U C124U | -3.55
C49U C56A C70U C76A U132A | -3.06
U59A C82U | -0.407
G10U G48U G63A C85U C86G | -3.3
A90U G113C | -2.53
C3A U9G G61C G113C | -4.85
C40A C70A G93U | -1.59
A68U C124A | -4.62
C53U C88U | 0.129
G47U G69U U131A | -1.3
C34A C56A | -3.11
G61A U129G | -1.24
A18U A43G G60A U92C U112C | -0.561

Variant | polymerase ribozyme fitness (log ratio)
G47C G69U A90C C104U | -1.9
U9C G10A G52A G63U | -2.31
A2U C3G C79A G113A C124G | -4.18
A24G G57A | -2.62
A111C C114A | -2.98
C40A G48A U55A G60U A95G G120C | -1.07
G60C A84C C86U | -1.01
C72U C94G G110C | -5.81
G47U C53A A103C U112A G122A | -6.51
C12A C73A G120C A121U | 2.42
G117U A121C | -2.4
G52U A121G | 1.06
G63U C124G | 0.287
A26C U55G | -5.98
C102A U109C | -6.22
U7G C20A G39A C49G A121G | -2.45
A95U C102U U125G | -4.42
C64U G120C | 0.769
A6C C8A C13G A43U G69C C88A | -2.92
C11G C34U | -2.8
A6U C8G C13A G19U G61C G93C G120C | -5.97
C3G G17U A50U U54A A74G A121C G135U | -4.33
U21C A37G A46C C64G A100C C115U G117C | -7.24
C13U C56A C86A | -0.732

Variant | polymerase ribozyme fitness (log ratio)
C40A G51A U78C C124A | -3.18
C8A G77U C82A | 0.031
U78C G122A | -1.22
U14G C40A G42C C80U G120U | -3.6
C70G U112A | -1.98
C56A G117A U125G G128C | -4.73
A5U G39A G60U C70U | -2.4
G60C G128A | -2.48
U9A C22A C89A G113U A118U G135U | -5.73
A41G G48U A121U | 1.04
G52A C53G U59A A119U | -4.71
A16U G45A A90G U96A U112G A118C | -3.03
C53U A118U G120C U133G | 0.183
U7G A26G C34U G113A | -4.39
A43U U59G G110A | -5.07
A37U A43G A50C G52U G110A | -5.79
G47A G113C G122A | -4.01
G117U C123G | -1.56
C12A C56A C123U U131G | 0.231
U7A C80U C99U C124G | -2.39
C22G A43U A46G U59A G120C | -4.94
C13G G17U A18U C40G C56A G107A C114U | -6.86
A66C A111G G117U | -7.39
C8A C12A | 0.497

Variant | polymerase ribozyme fitness (log ratio)
A2C C76U U126A | -1.99
U55C C64U | -0.472
C88G U92A | -4.09
C8A A24C C31U U38A G45U C56G C70G C80A A111U G117C | -6.01
A83G U92C C94A | -4.59
C12A G17A G61U | -4.75
C70A G135U | -1.99
G63U C89G | -1.88
G47A U125A | -1.31
G19A G120A | -2.6
A50U U87G G113U | -4.19
A27U G36U G60U | -4.13
A18U C64U | -2
C31G C73A | -6.15
C49A C123A | 0.189
A27C C79U A91C G120A | -4.64
G71C C88U | -2.61
A37C G63U | -1.28
U9A G61A A100U | 0.389
C12U C49A C115U | -1.47
C4G G120A | -0.396
G42U C49U | -2.98
A46U C73G G77A G127C | -3.61
C12A C28U C40U A41U | -4

Variant | polymerase ribozyme fitness (log ratio)
G17C U78C C89A U96A | -4.94
C13U C28G | -1.58
C13U C15U C20U U81A A90C C115U | -4.72
A5U C56G C70A | -3.29
C99U A121U | -0.669
C20U A90U G93A | -2.41
A6C U78C | -0.721
C11G A29G | -1.16
G51A C64A U78C A84C G117C | -6.38
C12G C64U A75U U116G G122A C124G | 0.593
C8G G61A C72U G128C | -0.569
C22A G110U | -5.03
C53A C56G U81G C101G U129C | -2.89
G10C C56G C123U | 1.26
G19U U55C G61C | -4.04
C13U C31A | -5.19
C28G G57C A84U C94U A118U | -2.35
A16U G69U G77A U116A | -1.32
G42A U116A | -3.72
C70G C85U | -3.79
C12U C34U | -3.06
U96A G120U G128U | -1.74
C8G G61C C89U C104U | -2.02
C70A C99U U109A | -6.83

Variant | polymerase ribozyme fitness (log ratio)
A37U C56U C72U | -0.343
C11A C98U U125A | -2.97
U9G A84C C98A C123A | -4.03
U92C U112C | 0.33
A2G C8G C22U | -5.08
U59A | 0.0811
C28G C94A | -4.49
A18U A37U U78G A84U U87A | -4.45
C53G A119G G128U | 0.277
C79U C114A G120C G127U | -1.06
C8G G42U G58C | -0.604
G47A C62A | -1.78
C86G | -0.82
G57A G113C U133A | -3.86
C4G G57C C64U A83G C85U | -3.12
G47U C76U | -1.17
A46C C49A G63A | -0.445
C8A C12A C34U C56G G77A | -2.77
C11G C49A | 0.121
G42C C56A | -1.76
A2C C13A | -2.71
U21A G52A A75U C115A C124A | 1.07
A16G U129G | -3.64
A18G C72U U81A A91U U96C G120A G128A | -6.28

Variant | polymerase ribozyme fitness (log ratio)
A46C G47U | -5.94
U7A C11G A37U G60U G93C | -0.83
G52A C56U C72U G113C U125A | -2.88
U129C U133G | 0.0769
C15G C53G G60A | -3.25
C28G C53A | -1.99
C12G C56A C82A | -0.693
C15A A29C U78A | -4.3
A6G C72G G117U A121U G127A | -2.18
U38A G45U G52A U131G | -3.68
A6C C97G | -5.16
G36A C88U | -0.885
G48U U112C | 0.623
G10A C40A C72U C76A C99A | -7.55
A16U C53G U59C U96G U112A G128C | -3.81
C12A C115U | -1.21
A24G A29U G47A A74G U87A U109G | -6.31
C20A G52U C62U U96G G120A | -3.86
U87A C102A | -2.11
A29G G107A | -5.6
G71C C85U C94U U132A | -2.18
U21C G71U | -0.75
U14C C56G | -2.27
